We go through 18 molecules from patent publication US20200190192A1 (SUTRO BIOPHARMA, published 2020).

Sequences and labels used below:
T1: cynomolgus Tim-3 expressed on CHO cells (cynomolgus monkey)
T1 construct: also called cTim-3; Cyno Tim-3 (CHO)
T1 chain: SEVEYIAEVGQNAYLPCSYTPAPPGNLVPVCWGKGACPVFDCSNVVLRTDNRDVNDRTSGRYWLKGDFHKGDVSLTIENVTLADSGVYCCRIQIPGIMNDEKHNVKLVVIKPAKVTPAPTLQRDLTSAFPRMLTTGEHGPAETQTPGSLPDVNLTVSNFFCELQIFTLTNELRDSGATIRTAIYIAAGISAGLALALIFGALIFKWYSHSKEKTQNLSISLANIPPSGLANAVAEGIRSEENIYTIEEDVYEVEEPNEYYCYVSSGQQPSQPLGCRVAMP

B1: h22E11-VK1-39 × h22E11-VH1-69 (antibody, V domains shown)
VH: QVQLVQSGAEVKKPGSSVKVSCKVSGFSLTSYGVHWVRQAPGQGLEWLVVIWSDGSTTYNQKFQGRVTITKDESTSTVYMELSSLRSEDTAVYYCARQGGYRYDDAMDYWGQGTLVTVSS
VL: DIQLTQSPSSLSASVGDRVTITCKASQSVDYDGNSYVNWYQQKPGKAPKLLIYAASNLESGVPSRFSGSGSGTDFTLTISSLQPEDFATYYCQQSNEDPYTFGQGTKVEIK
notes: Humanized m22E11
B2: h22E11-VK1-39 × h22E11-VH5-51 (antibody, V domains shown)
VH: EVQLVQSGAEVKKPGESLKISCKVSGFSLTSYGVHWVRQMPGKGLEWLVVIWSDGSTTYNPSFQGQVTISKDKSISTVYLQWSSLKASDTAMYYCARQGGYRYDDAMDYWGQGTLVTVSS
VL: B1 VL
notes: Humanized m22E11
B3: h22E11-VK2-28 × h22E11-VH1-69 (antibody, V domains shown)
VH: B1 VH
VL: DIVLTQSPLSLPVTPGEPASISCKASQSVDYDGNSYVNWYLQKPGQSPQLLIYAASNLESGVPDRFSGSGSGTDFTLKISRVEAEDVGVYYCQQSNEDPYTFGQGTKVEIK
notes: Humanized m22E11
B4: h22E11-VK3-11 × h22E11-VH1-69 (antibody, V domains shown)
VH: B1 VH
VL: EIVLTQSPATLSLSPGERATLSCKASQSVDYDGNSYVNWYQQKPGQAPRLLIYAASNLESGIPARFSGSGSGTDFTLTISSLEPEDFAVYYCQQSNEDPYTFGQGTKVEIK
notes: Humanized m22E11
B5: h22E11-VK1-39 × h22E11-VH3-23 (antibody, V domains shown)
VH: EVQLLESGGGLVQPGGSLRLSCAVSGFSLTSYGVHWVRQAPGKGLEWLVVIWSDGSTTYNDSVKGRFTISKDNSKNTVYLQMNSLRAEDTAVYYCARQGGYRYDDAMDYWGQGTLVTVSS
VL: B1 VL
notes: Humanized m22E11
B6: h22E11-VK1-39 × h22E11-VH4-30-4 (antibody, V domains shown)
VH: QVQLQESGPGLVKPSQTLSLTCTVSGFSLTSYGVHWIRQPPGKGLEWLVVIWSDGSTTYNPSLKSRVTISKDTSKNQVSLKLSSVTAADTAVYYCARQGGYRYDDAMDYWGQGTLVTVSS
VL: B1 VL
notes: Humanized m22E11
B7: h22E11-5-IgG-LC × h22E11-VH1-69 (antibody, V domains shown)
VH: B1 VH
VL: B4 VL with A9G, N38A, A64D, S81R
notes: Humanized m22E11
B8: h22E11-VK1-39 × h22E11-5-IgG-HC (antibody, V domains shown)
VH: B5 VH with L5V, D61S, S62A, V63L, G65S, S74A, T77S
VL: B1 VL
notes: Humanized m22E11
B9: h22E11-VK3-11 × h22E11-VH3-23 (antibody, V domains shown)
VH: B5 VH
VL: B4 VL
notes: Humanized m22E11
B10: h22E11-VK3-11 × h22E11-VH5-51 (antibody, V domains shown)
VH: B2 VH
VL: B4 VL
notes: Humanized m22E11
B11: h22E11-VK2-28 × h22E11-VH3-23 (antibody, V domains shown)
VH: B5 VH
VL: B3 VL
notes: Humanized m22E11
B12: h22E11-5-IgG-LC × h22E11-VH5-51 (antibody, V domains shown)
VH: B2 VH
VL: B4 VL with A9G, N38A, A64D, S81R
notes: Humanized m22E11
B13: h22E11-5-IgG-LC × h22E11-VH3-23 (antibody, V domains shown)
VH: B5 VH
VL: B4 VL with A9G, N38A, A64D, S81R
notes: Humanized m22E11
B14: h22E11-VK4-1 × h22E11-VH4-30-4 (antibody, V domains shown)
VH: B6 VH
VL: DIVLTQSPDSLAVSLGERATINCKASQSVDYDGNSYVNWYQQKPGQPPKLLIYAASNLESGVPDRFSGSGSGTDFTLTISSLQAEDVAVYYCQQSNEDPYTFGQGTKVEIK
notes: Humanized m22E11
B15: h22E11-VK3-11 × h22E11-VH4-30-4 (antibody, V domains shown)
VH: B6 VH
VL: B4 VL
notes: Humanized m22E11
B16: h22E11-VK4-1 × h22E11-VH5-51 (antibody, V domains shown)
VH: B2 VH
VL: B14 VL
notes: Humanized m22E11
B17: h22E11-5-IgG-LC × h22E11-VH4-30-4 (antibody, V domains shown)
VH: B6 VH
VL: B4 VL with A9G, N38A, A64D, S81R
notes: Humanized m22E11
B18: h22E11-VK4-1 × h22E11-5-IgG-HC (antibody, V domains shown)
VH: B5 VH with L5V, D61S, S62A, V63L, G65S, S74A, T77S
VL: B14 VL
notes: Humanized m22E11

Substitutions are numbered along the chain they refer to.

The first experiment addresses T2, recombinant human Tim-3-Fc (R&D Systems, 2365-TM) (human, UniProt Q8TDQ0 22-202, biotinylated in the Galectin-9 competition ELISA (sites not given)).
T2 construct: Bought protein; also called huTim-3-Fc; biotinylated Tim-3-Fc; not shown: Fc of the bought fusion protein
Briefly: SPR Biacore, human Tim-3 Fc. (In general: SPR reads the build-up and loss of mass on a sensor chip optically.)
Take B1: the off-rate constant (koff) (as a rule, the first-order rate constant of dissociation) worked out at 0.00094 s⁻¹.

Take B2: the koff came out at 0.000947 s⁻¹.

As to B3, the koff is 0.000863 s⁻¹.

For B4, the koff was 0.000867 s⁻¹.

As for B5, the off-rate (koff) is 0.00094 s⁻¹.

As to B6, the off-rate constant (koff) turned out to be 0.00126 s⁻¹.

Take B7: the koff stood at 0.000991 s⁻¹.

On to B8, for which the koff came to 0.00102 s⁻¹.

With B9, the off-rate (koff) amounted to 0.000934 s⁻¹.

With B10, the dissociation rate constant (koff) is 0.000875 s⁻¹.

On to B11, for which the off-rate (koff) is 0.000911 s⁻¹.

For B12, the koff worked out at 0.0011 s⁻¹.

As for B13, the off-rate constant (koff) came out at 0.000895 s⁻¹.

Regarding B14, the koff came out at 0.00119 s⁻¹.

Turning to B15, the dissociation rate constant (koff) worked out at 0.00107 s⁻¹.

For B16, the dissociation rate constant (koff) was found to be 0.000881 s⁻¹.

For the molecule B17, the off-rate constant (koff) was determined as 0.00117 s⁻¹.

Regarding B18, the off-rate (koff) is 0.000973 s⁻¹.

In the next experiment the target is T1, cynomolgus Tim-3 expressed on CHO cells. Briefly: flow cytometry, CHO-cyno Tim-3 cells. In general terms: A flow cytometer gives signals particle by particle.
As for B1, the Kd – broadly, the free concentration of one partner at which half of the binding sites on the other are occupied at equilibrium, for simple one-to-one binding – is 1.7 nM.

In turn, B2 registered a Kd of 2.1 nM.

In turn, B3 displayed a dissociation constant (Kd) of 1.7 nM.

B4 came in with a dissociation constant (Kd) of 2.8 nM.

As to B5, the dissociation constant Kd is 4.5 nM.

For the molecule B6, the affinity, expressed as Kd, was 5.5 nM.

The molecule B7 yielded a Kd of 3 nM.

Consider B8, for which the Kd came to 4.7 nM.

B9 came in with a Kd of 6.9 nM.

B10 showed a Kd of 2.7 nM.

The molecule B11 displayed a Kd of 5.4 nM.

With B13, the dissociation constant Kd came out at 13.2 nM.

B14 had a Kd of 5 nM.

For B15, binding was put at a Kd of 4.5 nM.

B16 returned a Kd of 1.9 nM.

B18: the dissociation constant Kd came out at 5.3 nM.

Another experiment addresses T3, human Tim-3 expressed on the cell surface (human, UniProt Q8TDQ0 22-301).
T3 construct: also called hTim-3; Human Tim-3 (CHO)
The experiment is described as follows: flow cytometry, CHO-human Tim-3 cells.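 Note: antibodies bound on ice for 60 min, detected by PE anti-human IgG Fc secondary, mean fluorescence intensity fit to one-site specific binding with Hill slope, parental CHO cells as nonspecific control.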
B1 yielded a Kd of 0.6 nM.

With B2, binding was characterised by a dissociation constant (Kd) of 0.4 nM.

The molecule B3 showed a Kd of 0.7 nM.

Take B4: the Kd came out at 1 nM.

Turning to B5, the dissociation constant (Kd) is 0.5 nM.

Molecule B6 gave an equilibrium dissociation constant (Kd) of 0.7 nM.

B7: the equilibrium dissociation constant (Kd) is 0.9 nM.

With B8, the equilibrium dissociation constant (Kd) was found to be 0.6 nM.

B9: binding was characterised by a dissociation constant (Kd) of 0.7 nM.

B10 showed an equilibrium dissociation constant (Kd) of 0.8 nM.

In turn, B11 gave a Kd of 0.8 nM.

B13 came in with a Kd of 0.8 nM.

With B14, the affinity, expressed as Kd, was 1.1 nM.

With B15, the dissociation constant Kd is 1 nM.

In turn, B16 gave a Kd of 0.8 nM.

The molecule B17 returned a Kd of 3.7 nM.

B18 came in with a Kd of 0.8 nM.

The target in the next experiment is T2, recombinant human Tim-3-Fc (R&D …). The experiment is described as follows: SPR Biacore, human Tim-3 Fc; KD estimated.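 Note: antibodies captured on an anti-FLAG sensor surface, Tim-3-Fc flowed over as analyte at 25 °C in HBS-EP+ buffer, rates fit with a 1:1 Langmuir model.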
In the case of B1, the equilibrium dissociation constant (Kd) was 6 nM.

Turning to B2, the Kd was 5.3 nM.

As for B3, the Kd was 5.4 nM.

As for B4, the equilibrium dissociation constant (Kd) was 4.9 nM.

In the case of B5, the Kd is 5.6 nM.

With B6, the Kd was 9.1 nM.

Regarding B7, the Kd was 4.9 nM.

Consider B8, for which the Kd is 6.2 nM.

Take B9: the Kd is 5.3 nM.

For the molecule B10, the Kd is 4.3 nM.

Regarding B11, the Kd is 5.9 nM.

Regarding B12, the Kd was 5 nM.

On to B13, for which the dissociation constant (Kd) was 5.3 nM.

Turning to B14, the dissociation constant (Kd) was 8.1 nM.

Take B15: the Kd is 7.2 nM.

B16: the dissociation constant (Kd) is 4.8 nM.

As for B17, the Kd was 7.6 nM.

On to B18, for which the Kd is 5.7 nM.

Another experiment concerns the target T3, human Tim-3 expressed on the cell …. Briefly: flow cytometry, activated human CD4+ T cells.
B1: binding was put at a Kd of 2.6 nM.

As to B2, the Kd was 0.9 nM.

As to B3, the dissociation constant (Kd) turned out to be 2.3 nM.

With B4, the dissociation constant (Kd) came to 4 nM.

As for B5, binding was characterised by a dissociation constant (Kd) of 1.1 nM.

B7: the dissociation constant Kd was 1.6 nM.

With B8, binding was put at a Kd of 2.4 nM.

B9 displayed a Kd of 0.9 nM.

Molecule B10 registered a Kd of 0.6 nM.

Molecule B11 came in with a Kd of 1.7 nM.

In turn, B13 came in with a Kd of 1.2 nM.

B14 registered a dissociation constant Kd of 5.7 nM.

In turn, B15 displayed a dissociation constant Kd of 7.1 nM.

B16: the Kd is 0.6 nM.

Take B18: the Kd turned out to be 1.4 nM.
